PMC10763354 (2024)

Biological target: Desulfovibrio vulgaris flagellin (Desulfovibrio vulgaris)
Experiment: MST

B1: leucine-rich repeat containing 19 (LRRC19) protein (receptor)
chain: SKREVQCNFTEKNYTLIPADIKKDVTILDLSYNQITLNGTDTRVLQTYFLLTELYLIENKVTILHNNGFGNLSSLEILNICRNSIYVIQQGAFLGLNKLKQLYLCQNKIEQLNADVFVPLRSLKLLNLQGNLISYLDVPPLFHLELITLYGNLWNCSCSLFNLQNWLNTSNVTLENENITMCSYPNSLQSYNIKTVPHKAECHSKFPSSVTEDLYIHFQPISNSIFNSSSNNLTRNSEHEPLGKSW
modifications: NT647 fluorescence dye (in the MST experiments only)
**Q.** How did the Kd turn out when B1 was run?
**A.** 1050 nM
